Experimental data as given in article PMC9913320, “Development of ^99mTc-Hynic-Adh-1 Molecular Probe Specifically Targeting N-Cadherin and Its Preliminary Experimental Study in Monitoring Drug Resistance of Non-Small-Cell Lung Cancer” (Cancers, 2023).

How the values were obtained:
[1] = Biodistribution in normal mice; type: in vivo, C57/BL6 mice; conditions: for tissue uptake at 0.5 h / tissue uptake at 1 h / tissue uptake at 2 h / tissue uptake at 4 h: i.v.; for tissue uptake at 0.5 h: 30 min; for tissue uptake at 1 h: 60 min; for tissue uptake at 2 h: 120 min; for tissue uptake at 4 h: 240 min
Method: (§1) The radiotracer (0.1 mL, 0.74 MBq) was injected intravenously into normal C57/BL6 mice and xenograft models as previously described (n = 4 per group per time) via the tail vein. After different time intervals (30, 60, 120 and 240 min), the mice were sacrificed by cervical dislocation, and their blood, tumors and major organs (brain, heart, lung, liver, spleen, kidney, stomach, intestine, muscle, bone and skin) were harvested and weighed. The radioactivity of each sample was measured with a γ-counter. Values are shown as the percentage of the injected dose per gram (%ID/g), which corrected for background and decay to maintain consistency.

[2] = Biodistribution in xenograft-bearing nude mice, PC9GR tumor; type: in vivo, BALB/c nude mice; conditions: mouse, iv, 0.74 MBq, xenograft-bearing nude mice, i.v., read-out: Biodistribution, T(PC9GR)
Method: (§2) All animal research was performed in accordance with the Zhejiang University Institutional Animal Care and Use Committee guidelines. PC9 and PC9GR cells (2 × 10^6 cells per mice) were injected subcutaneously into the flanks of 2- to 4-week old BALB/c nude mice (left: PC9GR, right: PC9). The cells were allowed to grow 3–5 weeks until tumors were 1 ± 0.5 cm^3 in volume. Normal C57/BL6 mice (aged 6 to 8 wks old) were obtained from the Animal Center of the First Affiliated Hospital of Zhejiang University. All animals were maintained with free access to food and water and used a standard diet, bedding and environment.
as §1

PC9GR tumor [3] = test: as above; type: in vivo, BALB/c nude mice; conditions: biodistribution, tumor-bearing mice
Method: as §2, §1

[4] = Biodistribution in xenograft-bearing nude mice, PC9 tumor; type: in vivo, BALB/c nude mice; conditions: mouse, tumor (PC9), iv, 0.74 MBq, xenograft-bearing nude mice, i.v., read-out: Biodistribution, T(PC9)
Method: as §2, §1

PC9 tumor [5] = test: as above; type: in vivo, BALB/c nude mice; conditions: biodistribution, tumor-bearing mice
Method: as §2, §1

PC9 tumor [6] = test: Small animal SPECT/CT imaging, ROI analysis; type: in vivo, BALB/c nude mice; conditions: non-blocked, 1 h
Method: as §2
(§3) Xenograft models were imaged using a nanoScan SPECT/CT (Mediso, Hungary) in vivo imaging system and anesthetized with 2% isoflurane before imaging. Mice in the non-blocked group (n = 4) were injected via tail vein with 3.7 MBq (100 μL) of radiotracer and imaged at different time points (1, 2 and 6 h). In the blocked group, 100 μL excess ADH-1 was injected through the tail vein 30 min in advance, and then the same volume and dose of imaging agent were injected for 1 h after imaging.
(§4) Three-dimensional ROIs were delineated along the edge of the tumor using SPECT/CT analysis software. Spherical ROIs of 0.03 cm^3 were delineated in organs or tissues (liver and muscle). The radiation intensity of each region was measured, and the tumor/non-tumor ratio was calculated.

PC9GR tumor [7] = test: Small animal SPECT/CT imaging, ROI analysis; type: in vivo, BALB/c nude mice; conditions: 1 h
Method: as §2, §3, §4

[8] = mouse, blood, iv, 0.74 MBq, normal C57/BL6 mice, read-out: Biodistribution, Blood
[9] = mouse, bone, iv, 0.74 MBq, normal C57/BL6 mice, read-out: Biodistribution, Bone
[10] = mouse, brain, iv, 0.74 MBq, normal C57/BL6 mice, read-out: Biodistribution, Brain
[11] = mouse, heart, iv, 0.74 MBq, normal C57/BL6 mice, read-out: Biodistribution, Heart
[12] = mouse, intestine, iv, 0.74 MBq, normal C57/BL6 mice, read-out: Biodistribution, Intestine
[13] = mouse, kidney, iv, 0.74 MBq, normal C57/BL6 mice, read-out: Biodistribution, Kidney
[14] = mouse, liver, iv, 0.74 MBq, normal C57/BL6 mice, read-out: Biodistribution, Liver
[15] = mouse, lung, iv, 0.74 MBq, normal C57/BL6 mice, read-out: Biodistribution, Lung
[16] = mouse, muscle, iv, 0.74 MBq, normal C57/BL6 mice, read-out: Biodistribution, Muscle
[17] = mouse, skin, iv, 0.74 MBq, normal C57/BL6 mice, read-out: Biodistribution, Skin
[18] = mouse, spleen, iv, 0.74 MBq, normal C57/BL6 mice, read-out: Biodistribution, Spleen
[19] = mouse, stomach, iv, 0.74 MBq, normal C57/BL6 mice, read-out: Biodistribution, Stomach

CC(=O)N[C@H]1CSSC[C@@H](C(=O)NCCNC(=O)c2ccc(NN)nc2)NC(=O)[C@H](C(C)C)NC(=O)[C@H](C)NC(=O)[C@H](Cc2c[nH]cn2)NC1=O [^99mTc-HYNIC-ADH-1, metal not drawn]
crossing of the blood–brain barrier ([1]; from biodistribution: no obvious distribution in the brain): could not cross the blood–brain barrier
tissue uptake at 0.5 h [1, 8]: 3.31 ± 0.37 %ID/g
tissue uptake at 1 h [1, 8]: 1.23 ± 0.07 %ID/g
tissue uptake at 2 h [1, 8]: 0.84 ± 0.19 %ID/g
tissue uptake at 4 h [1, 8]: 0.58 ± 0.08 %ID/g
tissue uptake at 0.5 h [1, 9]: 1.45 ± 0.11 %ID/g
tissue uptake at 1 h [1, 9]: 0.61 ± 0.14 %ID/g
tissue uptake at 2 h [1, 9]: 0.58 ± 0.3 %ID/g
tissue uptake at 4 h [1, 9]: 0.44 ± 0.15 %ID/g
tissue uptake at 0.5 h [1, 10]: 0.18 ± 0.05 %ID/g
tissue uptake at 1 h [1, 10]: 0.09 ± 0.02 %ID/g
tissue uptake at 2 h [1, 10]: 0.1 ± 0.02 %ID/g
tissue uptake at 4 h [1, 10]: 0.08 ± 0.05 %ID/g
tissue uptake at 0.5 h [1, 11]: 1.71 ± 0.3 %ID/g
tissue uptake at 1 h [1, 11]: 0.49 ± 0.29 %ID/g
tissue uptake at 2 h [1, 11]: 0.43 ± 0.07 %ID/g
tissue uptake at 4 h [1, 11]: 0.32 ± 0.04 %ID/g
tissue uptake at 0.5 h [1, 12]: 2.96 ± 0.3 %ID/g
tissue uptake at 1 h [1, 12]: 2.14 ± 0.43 %ID/g
tissue uptake at 2 h [1, 12]: 1.78 ± 0.2 %ID/g
tissue uptake at 4 h [1, 12]: 1.26 ± 0.33 %ID/g
tissue uptake at 5 min ([1]; mouse, kidney, iv, 0.74 MBq, normal C57/BL6 mice, 5 min): 22.1 ± 1.15 %ID/g
tissue uptake at 0.25 h ([1]; mouse, kidney, iv, 0.74 MBq, normal C57/BL6 mice, 15 min): 12 ± 0.73 %ID/g
tissue uptake at 0.5 h [1, 13]: 12.1 ± 0.47 %ID/g
tissue uptake at 1 h [1, 13]: 9.01 ± 0.76 %ID/g
tissue uptake at 2 h [1, 13]: 6.46 ± 0.3 %ID/g
tissue uptake at 4 h [1, 13]: 6.16 ± 0.51 %ID/g
tissue uptake at 0.5 h [1, 14]: 1.95 ± 0.17 %ID/g
tissue uptake at 1 h [1, 14]: 1.06 ± 0.2 %ID/g
tissue uptake at 2 h [1, 14]: 0.86 ± 0.15 %ID/g
tissue uptake at 4 h [1, 14]: 0.68 ± 0.12 %ID/g
tissue uptake at 0.5 h [1, 15]: 3.83 ± 0.12 %ID/g
tissue uptake at 1 h [1, 15]: 1.7 ± 0.14 %ID/g
tissue uptake at 2 h [1, 15]: 1.54 ± 0.56 %ID/g
tissue uptake at 4 h [1, 15]: 1.08 ± 0.27 %ID/g
tissue uptake at 0.5 h [1, 16]: 1.55 ± 0.8 %ID/g
tissue uptake at 1 h [1, 16]: 0.44 ± 0.08 %ID/g
tissue uptake at 2 h [1, 16]: 0.52 ± 0.29 %ID/g
tissue uptake at 4 h [1, 16]: 0.42 ± 0.21 %ID/g
tissue uptake at 0.5 h [1, 17]: 3.45 ± 0.44 %ID/g
tissue uptake at 1 h [1, 17]: 1.9 ± 0.58 %ID/g
tissue uptake at 2 h [1, 17]: 1.69 ± 0.4 %ID/g
tissue uptake at 4 h [1, 17]: 1.05 ± 0.18 %ID/g
tissue uptake at 0.5 h [1, 18]: 1.25 ± 0.1 %ID/g
tissue uptake at 1 h [1, 18]: 0.73 ± 0.24 %ID/g
tissue uptake at 2 h [1, 18]: 0.53 ± 0.12 %ID/g
tissue uptake at 4 h [1, 18]: 0.45 ± 0.11 %ID/g
tissue uptake at 0.5 h [1, 19]: 2.24 ± 0.42 %ID/g
tissue uptake at 1 h [1, 19]: 0.94 ± 0.23 %ID/g
tissue uptake at 2 h [1, 19]: 0.66 ± 0.09 %ID/g
tissue uptake at 4 h [1, 19]: 1.28 ± 0.43 %ID/g
tissue uptake at 2 h ([2]; tumor (PC9GR), 120 min): 1.32 ± 0.08 %ID/g
tissue uptake at 0.5 h ([2]; tumor, 30 min): 1.09 ± 0.15 %ID/g
tissue uptake at 1 h ([2]; tumor, 60 min): 1.26 ± 0.1 %ID/g
tissue uptake at 4 h ([2]; tumor, 240 min): 0.75 ± 0.19 %ID/g
T/NT PC9GR/Kidney (PC9GR tumor [3]; 30 min): 0.42 ± 0.10
T/NT PC9GR/Liver (PC9GR tumor [3]; 30 min): 1.64 ± 0.24
T/NT PC9GR/Muscle (PC9GR tumor [3]; 30 min): 2.41 ± 0.12
T/NT PC9GR/Kidney (PC9GR tumor [3]; 1 h): 0.27 ± 0.04
T/NT PC9GR/Liver (PC9GR tumor [3]; 1 h): 1.58 ± 0.12
T/NT PC9GR/Muscle (PC9GR tumor [3]; 1 h): 2.64 ± 0.47
T/NT PC9GR/Kidney (PC9GR tumor [3]; 2 h): 0.49 ± 0.20
T/NT PC9GR/Liver (PC9GR tumor [3]; 2 h): 2.14 ± 0.69
T/NT PC9GR/Muscle (PC9GR tumor [3]; 2 h): 5.19 ± 1.89
T/NT PC9GR/Kidney (PC9GR tumor [3]; 4 h): 0.26 ± 0.13
T/NT PC9GR/Liver (PC9GR tumor [3]; 4 h): 1.36 ± 0.69
T/NT PC9GR/Muscle (PC9GR tumor [3]; 4 h): 3.62 ± 1.92
tissue uptake at 0.5 h ([4]; 30 min): 0.99 ± 0.15 %ID/g
tissue uptake at 1 h ([4]; 60 min): 0.91 ± 0.03 %ID/g
tissue uptake at 2 h ([4]; 120 min): 0.79 ± 0.06 %ID/g
tissue uptake at 4 h ([4]; 240 min): 0.64 ± 0.16 %ID/g
T/NT PC9/Kidney (PC9 tumor [5]; 30 min): 0.27 ± 0.06
T/NT PC9/Liver (PC9 tumor [5]; 30 min): 1.36 ± 0.15
T/NT PC9/Muscle (PC9 tumor [5]; 30 min): 1.97 ± 0.21
T/NT PC9/Kidney (PC9 tumor [5]; 1 h): 0.27 ± 0.03
T/NT PC9/Liver (PC9 tumor [5]; 1 h): 1.58 ± 0.06
T/NT PC9/Muscle (PC9 tumor [5]; 1 h): 2.59 ± 0.34
T/NT PC9/Kidney (PC9 tumor [5]; 2 h): 0.26 ± 0.06
T/NT PC9/Liver (PC9 tumor [5]; 2 h): 1.41 ± 0.21
T/NT PC9/Muscle (PC9 tumor [5]; 2 h): 3.36 ± 0.08
T/NT PC9/Kidney (PC9 tumor [5]; 4 h): 0.25 ± 0.02
T/NT PC9/Liver (PC9 tumor [5]; 4 h): 1.01 ± 0.31
T/NT PC9/Muscle (PC9 tumor [5]; 4 h): 2.78 ± 0.28
T/N (tumor to adjacent muscle radioactivity intensity, SPECT/CT ROI) (PC9 tumor [6]): 3.66 ± 0.78
T/N (tumor to adjacent muscle radioactivity intensity, SPECT/CT ROI) (PC9GR tumor [7]; blocked group (excess unlabeled ADH-1 30 min in advance)): 3.69 ± 0.50
T/N (tumor to adjacent muscle radioactivity intensity, SPECT/CT ROI) (PC9GR tumor [7]; non-blocked): 7.73 ± 0.54
